Results on eleven molecules are retold here after patent publication US20130202591A1 (ANAPTYSBIO, published 2013).

For assay [1], the target named is T1, human IL-17 (human, UniProt Q16552 24-155).
T1 construct: also called hIL-17; IL-17A
Put plainly: KINEXA 3000, solution equilibrium, free antibody captured on human IL-17a beads.

The target of assay [2] is T1, human IL-17. Put plainly: SPR (BIACORE A100), IgG from transfection supernatant captured by anti-human Fc on CM5 chip, human IL-17 flowed over; 1:1 model with mass transport. (In general: SPR reads the build-up and loss of mass on a sensor chip optically.)
In assay [3] the target is T1, human IL-17. The assay can be described thus: Average KINEXA values.
Assay [4] concerns the target T2, IL-17 antigen (APE349) linked to wasabi fluorescent protein (WFP) (labeled with Eu3+-TBP-NHS Cryptate).
T2 construct: also called labeled antigen
Put plainly: HTRF competition against the labelled second reference antibody. A general note: TR-FRET usually uses a lanthanide donor and a delayed reading to cut background.

The target of assay [5] is T3, human Myc-IL-17a (APE280) (human, UniProt Q16552 24-155, limits assumed).
T3 construct: not shown: Myc tag
Put plainly: competition ELISA: plate coated with myc-IL-17a (APE280), antibody titrated against biotinylated IL-17RA (sheet: 2.1 nM, overnight incubation), bound IL-17RA detected with avidin-HRP, OD450 as % of no antibody.

Assay [6] addresses T1, human IL-17. The assay can be described thus: cell-based or functional assay.
Assay [7] concerns the target T3, human Myc-IL-17a (APE280). Put plainly: cell-based or functional assay.
Assay [8] concerns the target T3, human Myc-IL-17a (APE280). The assay can be described thus: competition ELISA, plate-coated myc-IL-17a, biotinylated IL-17RA as competitor, IC50 comparison. Background: ELISA stands for enzyme-linked immunosorbent assay.

B1: APE265-817/773 (antibody, V domains shown)
VH: EVQLVESGGGLVQPGGSLRLSCAASGFTFSNHWMNWVRQAPGKGLEWVAAINEDGSEKYYVGSVKGRFTISRDNAKNSLYLQMNSLRVEDTAVYYCARDYYDILTDYYIHYWYFDLWGRGTLVTVSS
VL: not shown
notes: also called Well 11
One may read the Kd as the concentration at which binding is half-saturated. Read a low Kd as higher affinity. In the case of B1, the Kd was 0.322 nM with human IL-17 [1] and below 1 nM with human IL-17 [2].

B2: antibody with heavy chain SEQ ID NO: 6 and light chain SEQ ID NO: 27 (antibody, V domains shown)
VH: EVQLVESGGGLVQPGGSLRLSCAASGFTFSSYWMSWVRQAPGKGLEWVASIKQDGSEKYYVDSVKGRFTISRDNAKNSLYLQMNSLRAEDTAVYYCARDYYDILTDYYIHYWYFDLWGRGTLVTVSS
VL: not shown
notes: IgG captured by anti-human Fc; also called Well 20
In the assay with human IL-17 [2], B2 yielded a Kd above 10 nM.

B3: antibody with heavy chain SEQ ID NO: 2 and light chain SEQ ID NO: 29 (antibody, V domains shown)
VH: EVQLVESGGGLVQPGGSLRLSCAASGFTFSSHWMSWVRQAPGKGLEWVANIKEDGSEKYYVDSVKGRFTISRDNAKNSLYLQMNSLRAEDTAVYYCARDYYDILTDYYIHYWYFDLWGRGTLVTVSS
VL: not shown
notes: IgG captured by anti-human Fc; also called Well 3
In turn, B3 yielded a Kd with human IL-17 [2] above 10 nM.

B4: APE422-1141/773 (antibody, V domains shown)
VH: EVQLVESGGGLVQPGGSLRLSCAASGFTFSNHWMNWVRQTPGKGLEWVAAINEDGSEKYYVGSVKVRFTISRDNAKNSLYLQMNSLRVEDTAVYYCARDYYDILTDYYIHYWYFDLWGRGTLVTVSS
VL: not shown
notes: Human IgG (detected with anti-human IgG)
For orientation: koff means the rate constant with which the complex falls apart. As a reminder, the kon is a measure of how fast the partners come together. Take B4: in the assay with human IL-17 [3], the koff worked out at 2.4e-05 s⁻¹ and the kon came to 360000 M⁻¹ s⁻¹. This molecule yielded a Kd with human IL-17 [1] of 0.067 nM.

B5: antibody with heavy chain SEQ ID NO: 30 and light chain SEQ ID NO: 24 (antibody, V domains shown)
VH: EVQLVESGGGLVQPGGSLRLSCAASGFTFSNYWMNWVRQAPGKGLEWVAAINQDGSEKYYVGSVKGRFTISRDNAKNSLYLQMNSLRVEDTAVYYCVRDYYDILTDYYIHYWYFDLWGRGTLVTVSS
VL: not shown
notes: IgG captured by anti-human Fc; also called Well 8
In the assay with human IL-17 [2], B5 displayed a Kd below 1 nM.

B6: APE321-844/773 (antibody, V domains shown)
VH: EVQLVESGGGLVQPGGSLRLSCAASGFTFSSYWMSWVRQAPGKGLEWVASIKQDGSEKYYVDSVKGRFTISRDNAKNSLYLQMNSLRAEDTAVYYCARDYYDILTDYYIHYWYFDLWGRGTLVTVSS
VL: not shown
notes: Human IgG; also called Well 12
As for B6, the Kd in the assay with human IL-17 [1] was 9.4 nM; with human IL-17 [2], below 1 nM.

B7: antibody with heavy chain SEQ ID NO: 9 and light chain SEQ ID NO: 29 (antibody, V domains shown)
VH: EVQLVESGGGLVQPGGSLRLSCAASGFTFSNYWMNWVRQAPGKGLEWVASINQDGSEKYYVGSVKGRFTISRDNAKNSLYLQMNSLRVEDTAVYYCVRDYYDILTDYYIHYWYFDLWGRGTLVTVSS
VL: not shown
notes: IgG captured by anti-human Fc; also called Well 7
For the molecule B7, the Kd in the assay with human IL-17 [2] is above 10 nM.

B8: antibody with heavy chain SEQ ID NO: 4 and light chain SEQ ID NO: 29 (antibody, V domains shown)
VH: EVQLVESGGGLVQPGGSLRLSCAASGFTFSNHWMNWVRQAPGKGLEWVAAINEDGSEKYYVGSVKGRFTISRDNAKNSLYLQMNSLRVEDTAVYYCARDYYDILTDYYIHYWYFDLWGRGTLVTVSS
VL: not shown
notes: IgG captured by anti-human Fc; also called Well 4
With B8, the Kd with human IL-17 [2] is below 1 nM.

B9: APE508-1266/773 (antibody, V domains shown)
VH: EVQLVESGGGLVQPGGSLRLSCAASGFTFSNHWMNWVRQTPGKGLEWVAAINEDGSEKYYVGSVKVRFTISRDNAKNSLYLQMNSLRVEDTAVYYCVRDYYDILTDYYIHYWYFDLWGRGTLVTVSS
VL: not shown
notes: as for B4
As a reminder, the IC50 is the concentration at which inhibition is half-maximal. Higher therefore signals weaker potency. In the assay with human IL-17 [3], B9 gave a koff of 1.8e-05 s⁻¹ and a kon of 418000 M⁻¹ s⁻¹. The binding result in assay [4] is on record as “binds”. In the assay with human IL-17 [1], this molecule yielded a Kd of 0.043 nM. Further, the IC50 in assay [5] was 1.6 nM.

B10: antibody with heavy chain SEQ ID NO: 30 and light chain SEQ ID NO: 25 (antibody, V domains shown)
VH: EVQLVESGGGLVQPGGSLRLSCAASGFTFSNYWMNWVRQAPGKGLEWVAAINQDGSEKYYVGSVKGRFTISRDNAKNSLYLQMNSLRVEDTAVYYCVRDYYDILTDYYIHYWYFDLWGRGTLVTVSS
VL: not shown
notes: IgG captured by anti-human Fc; also called Well 15
On to B10, for which the Kd with human IL-17 [2] was below 1 nM.

B11: APE755-1574/773 (antibody, V domains shown)
VH: EVQLVESGGGLVQPGGSLRLSCAASGFTFSNHWMNWVRQTPGKGLEWVAAINEDGSEKYYVGSVKVRFTISRDNAKNSLYLQMNSLRVEDTAVYYCARDYYDILTRDYYDILTDYYIHYWYFDLWGRGTLVTVSS
VL: not shown
notes: as for B4
Regarding B11, the “IL-6 and IL-8 release from IL-17-stimulated primary human RA synovial fibroblasts, potency against the reference anti-IL-17a antibodies” value with human IL-17 [6] worked out at 5 fold. Further, in assay [7], the “IL-8 release from human IL-17-stimulated cell lines, potency against the first reference anti-IL17a antibody” value worked out at 2 fold. In the assay with human IL-17 [3], this molecule gave a koff of 5.9e-06 s⁻¹ and a kon of 1.2e+06 M⁻¹ s⁻¹. The same molecule came in with a dissociation constant (Kd) with human IL-17 [1] of 0.0049 nM. For the same molecule, the “fold potency in blocking IL-17/IL-17RA interaction against the first reference anti-IL-17a antibody” value in assay [8] came to 40 fold. The IC50 in assay [5] came to 0.34 nM.
